Results taken from paper PMC3733360 (Structure (London, England : 1993), 2008).
Numbering of substitutions follows the chain as printed. Numbers in names are those of the source. Each block holds one binder with its values, some of them ahead of it.

Tests used:
[1] = target: T1, Sso1pHT (amino acids 185-290 of Sso1p lacking the regulatory Habc domain), wild type (yeast, UniProt P32867 185-290); test: EPR line shape
T1 sequence (looked up): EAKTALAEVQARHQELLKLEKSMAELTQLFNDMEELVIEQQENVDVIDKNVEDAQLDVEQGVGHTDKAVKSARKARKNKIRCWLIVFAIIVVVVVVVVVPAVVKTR

[2] = target: T2, Snc2pS (soluble Snc2p, amino acids 1-93), wild type (yeast, UniProt P33328 1-93); test: EPR line shape
T2 sequence (looked up): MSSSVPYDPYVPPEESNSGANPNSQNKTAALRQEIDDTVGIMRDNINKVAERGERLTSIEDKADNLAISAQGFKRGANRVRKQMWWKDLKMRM

[3] = target: T3, Sec9c (amino acids 401-651 of Sec9), wild type (yeast, UniProt P40357 401-651); test: FRET or BRET
T3 sequence (looked up): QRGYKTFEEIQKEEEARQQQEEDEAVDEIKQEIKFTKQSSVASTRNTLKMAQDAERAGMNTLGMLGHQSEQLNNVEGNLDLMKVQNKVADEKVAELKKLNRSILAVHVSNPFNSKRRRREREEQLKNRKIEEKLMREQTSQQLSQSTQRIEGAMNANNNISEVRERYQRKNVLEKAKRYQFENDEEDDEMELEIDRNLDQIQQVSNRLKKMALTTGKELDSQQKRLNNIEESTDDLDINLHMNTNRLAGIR

B1: Sec9c D599C, spin labeled with MTSSL (SN2) (domain or fragment, yeast, UniProt P40357 401-651, looked up)
chain: T3 sequence (looked up) with D199C
modifications: MTSSL nitroxide spin label on cysteine 599
- percent of SN2 in an unstructured conformation (not in the complex) [1]: ~60%
- percent of SN2 in an unstructured conformation (not in the complex) [2]: ~60%

B3: Sec9c D620C, spin labeled with MTSSL (SN2) (domain or fragment, yeast, UniProt P40357 401-651, looked up)
chain: T3 sequence (looked up) with D220C
modifications: MTSSL nitroxide spin label on cysteine 620
- percent of SN2 in an unstructured conformation (not in the complex) [1]: ~60%
- percent of SN2 in an unstructured conformation (not in the complex) [2]: ~60%

B4: Sec9c H641C, spin labeled with MTSSL (SN2) (domain or fragment, yeast, UniProt P40357 401-651, looked up)
chain: T3 sequence (looked up) with H241C
modifications: MTSSL nitroxide spin label on cysteine 641
- percent of SN2 in an unstructured conformation (not in the complex) [1]: ~60%
- percent of SN2 in an unstructured conformation (not in the complex) [2]: ~60%

The remaining lines, values ahead:

- percent of SN2 in an unstructured conformation (not in the complex) [1]: ~60%
- percent of SN2 in an unstructured conformation (not in the complex) [2]: ~60%
B2: Sec9c N606C, spin labeled with MTSSL (SN2) (domain or fragment, yeast, UniProt P40357 401-651, looked up)
chain: T3 sequence (looked up) with N206C
modifications: MTSSL nitroxide spin label on cysteine 606

- percent of SN2 in an unstructured conformation (not in the complex) [1]: ~60%
- percent of SN2 in an unstructured conformation (not in the complex) [2]: ~60%
B5: Sec9c N627C, spin labeled with MTSSL (SN2) (domain or fragment, yeast, UniProt P40357 401-651, looked up)
chain: T3 sequence (looked up) with N227C
modifications: MTSSL nitroxide spin label on cysteine 627

- binding result [3]: binds
B6: Sso1pHT E185C labeled with Cy3 (domain or fragment, yeast, UniProt P32867 185-290, looked up)
chain: T1 sequence (looked up) with E1C
modifications: Cy3 maleimide on cysteine 185

- binding result [3]: binds
B7: full-length Snc2p (amino acids 1-115) P13C labeled with Cy5 (natural protein, yeast, UniProt P33328 1-115, looked up)
chain: MSSSVPYDPYVPCEESNSGANPNSQNKTAALRQEIDDTVGIMRDNINKVAERGERLTSIEDKADNLAISAQGFKRGANRVRKQMWWKDLKMRMCLFLVVIILLVVIIVPIVVHFS
modifications: Cy5 maleimide on cysteine 13
